# Laboratory results reported in PMC11100747 (bioRxiv, 2024).
# T1: Gdi1 (yeast, UniProt P39958 1-451)
# T1 sequence: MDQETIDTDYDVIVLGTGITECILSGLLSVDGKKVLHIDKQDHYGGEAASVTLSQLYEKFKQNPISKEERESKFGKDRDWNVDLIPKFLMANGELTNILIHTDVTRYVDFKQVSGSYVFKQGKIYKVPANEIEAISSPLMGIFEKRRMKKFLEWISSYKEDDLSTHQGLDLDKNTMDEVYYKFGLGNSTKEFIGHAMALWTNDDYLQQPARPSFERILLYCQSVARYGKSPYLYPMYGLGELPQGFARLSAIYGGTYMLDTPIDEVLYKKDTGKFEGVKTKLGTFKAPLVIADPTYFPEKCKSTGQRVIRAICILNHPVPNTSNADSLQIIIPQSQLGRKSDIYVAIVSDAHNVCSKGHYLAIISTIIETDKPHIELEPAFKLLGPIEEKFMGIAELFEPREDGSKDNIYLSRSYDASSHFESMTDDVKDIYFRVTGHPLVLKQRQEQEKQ
# T2: Ric1 (S. cerevisiae, UniProt P40395 1-1056)
# T2 sequence: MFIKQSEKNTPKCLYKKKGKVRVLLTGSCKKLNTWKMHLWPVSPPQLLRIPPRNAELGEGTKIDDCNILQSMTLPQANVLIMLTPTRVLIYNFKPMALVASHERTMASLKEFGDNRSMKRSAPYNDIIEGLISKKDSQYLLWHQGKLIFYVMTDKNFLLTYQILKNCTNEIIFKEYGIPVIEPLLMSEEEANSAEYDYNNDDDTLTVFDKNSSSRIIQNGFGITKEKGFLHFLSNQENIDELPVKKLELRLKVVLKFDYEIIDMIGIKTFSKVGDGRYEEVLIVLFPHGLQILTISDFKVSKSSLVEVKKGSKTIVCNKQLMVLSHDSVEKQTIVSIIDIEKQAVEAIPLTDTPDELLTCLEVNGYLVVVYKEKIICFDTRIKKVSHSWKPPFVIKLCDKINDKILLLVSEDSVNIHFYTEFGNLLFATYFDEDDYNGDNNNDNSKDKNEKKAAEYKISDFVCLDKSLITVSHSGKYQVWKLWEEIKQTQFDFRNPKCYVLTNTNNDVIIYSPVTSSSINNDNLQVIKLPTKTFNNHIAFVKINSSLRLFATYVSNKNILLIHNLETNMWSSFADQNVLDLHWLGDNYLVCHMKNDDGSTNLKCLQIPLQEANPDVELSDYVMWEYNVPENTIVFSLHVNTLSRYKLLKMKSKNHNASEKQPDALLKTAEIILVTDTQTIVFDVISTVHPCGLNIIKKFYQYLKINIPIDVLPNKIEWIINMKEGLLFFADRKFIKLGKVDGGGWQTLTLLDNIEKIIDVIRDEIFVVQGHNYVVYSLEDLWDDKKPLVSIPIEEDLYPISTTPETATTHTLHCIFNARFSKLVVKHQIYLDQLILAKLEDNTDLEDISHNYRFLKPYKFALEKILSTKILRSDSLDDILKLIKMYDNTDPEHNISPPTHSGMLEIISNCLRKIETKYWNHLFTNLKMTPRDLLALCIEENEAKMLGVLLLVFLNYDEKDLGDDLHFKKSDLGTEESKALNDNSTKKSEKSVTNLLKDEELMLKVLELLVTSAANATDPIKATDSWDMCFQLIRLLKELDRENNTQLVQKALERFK
# Legend:
# Gdi1 = target: T1, Gdi1; test: SEC
# Ric1 = target: T2, Ric1; test: cryo-EM structure
Binder,binding result (Gdi1),binding result (Ric1)
"prenylated Rab6-mantGDP (natural protein, C-terminal cysteines prenylated (geranylgeranyl)) MSRSGKSLTKYKIVFLGEQGVGKTSLITRFMYDTFDDHYQATIGIDFLSKTMYLDDKTIRLQLWDTAGQERFRSLIPSYIRDSRVAIIVYDITKRKSFEYIDKWIEDVKNERGDENVILCIVGNKSDLSDERQISTEEGEKKAKLLGAKIFMETSTKAGYNVKALFKKIAKSLPEFQNSESTPLDSENANSANQNKPGVIDISTAEEQEQSACQC",binds,–
Rgp1 (natural protein) MRAHRIDTFLIRENIKLEIIHESNSYFGGEHISIAFRFKHLGSQHELFNYKEKLLTVDKAVEEKLEQQAKVQDDGEGTMENQTWSLKSLLGAFKRTGEPEESVDVDNMKMLNESKMLREKIQKQMYFHQPVTLISGYVQISGVFQYDSEVISESKFKQDEVKMVGLDIVPGHTTNSVLALEDGEHFKGKRNLTNYLNSDYTNVTNGLLFSESGSRGRTGTYNERTLMISNDTSIKTLPLLLIPQTLLFSEISLEPGEVRTFYFKSTKLPKDICPSYSSSKVASINYTLEVGADVLSDDNIEKFSNRVPITIAPYISSNAEQYTSRLDKPAIILKTGNIKELKPRLFTRKVSTASAVSFGRRKSSIIDIDSPLEDNEFVKRVKKNFIELVESNQNVSRDIDELIDLQMGVQFGKDEDSSDPEPNDSHFSNEMVTSAESSLRSDAVTKRRKSYSVRDNISNLEQKMWNDCSLVKSDENSNLLPQLINLQNAYQINRNNETMAKVSLSAPFYKTTDDINLVIELDPITTPLLKVTSLTVSLESFEIINPKYKTEGKGIGSKPKGNSVYEKHFICFDECKSVSVKLLPPRSPTNQITGQFKTDVFQHKWMIGLKFVIIAKTESITLDQFYEDKKGILFHSKENLEGEEFTCYVPIPILCTSEDFMGW,–,binds
